Experimental data taken from paper PMC10540216, “Activity Guided Azide-methyllysine Photo-trapping for Substrate Profiling of Lysine Demethylases” (Journal of the American Chemical Society, 2023).

Tested on: KDM4A-I71AzF
Experiment: CASI: photo-crosslinking with HEK293T cell extracts, StrepTactin enrichment and LC-MS/MS proteomics;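 further: lysates from HEK293T cells pretreated with a KDM4 inhibitor to raise proteome methylation, affinity-purified after ±UV, gel-resolved, trypsin-digested, with exclusive unique peptides per protein averaged per condition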
Format: binding, human
Conditions: sheet "Final results but with 0.01"

Molecule	Fold change (+UV/-UV)
LMNB2_HUMAN (protein, UniProt Q03252 1-617, looked up) Lamin-B2: MSPPSPGRRREQRRPRAAATMATPLPGRAGGPATPLSPTRLSRLQEKEELRELNDRLAHYIDRVRALELENDRLLLKISEKEEVTTREVSGIKALYESELADARRVLDETARERARLQIEIGKLRAELDEVNKSAKKREGELTVAQGRVKDLESLFHRSEVELAAALSDKRGLESDVAELRAQLAKAEDGHAVAKKQLEKETLMRVDLENRCQSLQEELDFRKSVFEEEVRETRRRHERRLVEVDSSRQQEYDFKMAQALEELRSQHDEQVRLYKLELEQTYQAKLDSAKLSSDQNDKAASAAREELKEARMRLESLSYQLSGLQKQASAAEDRIRELEEAMAGERDKFRKMLDAKEQEMTEMRDVMQQQLAEYQELLDVKLALDMEINAYRKLLEGEEERLKLSPSPSSRVTVSRATSSSSGSLSATGRLGRSKRKRLEVEEPLGSGPSVLGTGTGGSGGFHLAQQASASGSVSIEEIDLEGKFVQLKNNSDKDQSLGNWRIKRQVLEGEEIAYKFTPKYILRAGQMVTVWAAGAGVAHSPPSTLVWKGQSSWGTGESFRTVLVNADGEEVAMRTVKKSSVMRENENGEEEEEEAEFGEEDLFHQQGDPRTTSRGC	0.5
PNPT1_HUMAN (protein, UniProt Q8TCS8 46-783, looked up) Polyribonucleotide …: AVAVDLGNRKLEISSGKLARFADGSAVVQSGDTAVMVTAVSKTKPSPSQFMPLVVDYRQKAAAAGRIPTNYLRREIGTSDKEILTSRIIDRSIRPLFPAGYFYDTQVLCNLLAVDGVNEPDVLAINGASVALSLSDIPWNGPVGAVRIGIIDGEYVVNPTRKEMSSSTLNLVVAGAPKSQIVMLEASAENILQQDFCHAIKVGVKYTQQIIQGIQQLVKETGVTKRTPQKLFTPSPEIVKYTHKLAMERLYAVFTDYEHDKVSRDEAVNKIRLDTEEQLKEKFPEADPYEIIESFNVVAKEVFRSIVLNEYKRCDGRDLTSLRNVSCEVDMFKTLHGSALFQRGQTQVLCTVTFDSLESGIKSDQVITAINGIKDKNFMLHYEFPPYATNEIGKVTGLNRRELGHGALAEKALYPVIPRDFPFTIRVTSEVLESNGSSSMASACGGSLALMDSGVPISSAVAGVAIGLVTKTDPEKGEIEDYRLLTDILGIEDYNGDMDFKIAGTNKGITALQADIKLPGIPIKIVMEAIQQASVAKKEILQIMNKTISKPRASRKENGPVVETVQVPLSKRAKFVGPGGYNLKKLQAETGVTISQVDEETFSVFAPTPSAMHEARDFITEICKDDQEQQLEFGAVYTATITEIRDTGVMVKLYPNMTAVLLHNTQLDQRKIKHPTALGLEVGQEIQVKYFGRDPADGRMRLSRKVLQSPATTVVRTLNDRSSIVMGEPISQSSSNSQ	0
ILF3_HUMAN (protein, UniProt Q12906 1-894, looked up) Interleukin enhancer-binding …: MRPMRIFVNDDRHVMAKHSSVYPTQEELEAVQNMVSHTERALKAVSDWIDEQEKGSSEQAESDNMDVPPEDDSKEGAGEQKTEHMTRTLRGVMRVGLVAKGLLLKGDLDLELVLLCKEKPTTALLDKVADNLAIQLAAVTEDKYEILQSVDDAAIVIKNTKEPPLSLTIHLTSPVVREEMEKVLAGETLSVNDPPDVLDRQKCLAALASLRHAKWFQARANGLKSCVIVIRVLRDLCTRVPTWGPLRGWPLELLCEKSIGTANRPMGAGEALRRVLECLASGIVMPDGSGIYDPCEKEATDAIGHLDRQQREDITQSAQHALRLAAFGQLHKVLGMDPLPSKMPKKPKNENPVDYTVQIPPSTTYAITPMKRPMEEDGEEKSPSKKKKKIQKKEEKAEPPQAMNALMRLNQLKPGLQYKLVSQTGPVHAPIFTMSVEVDGNSFEASGPSKKTAKLHVAVKVLQDMGLPTGAEGRDSSKGEDSAEETEAKPAVVAPAPVVEAVSTPSAAFPSDATAEQGPILTKHGKNPVMELNEKRRGLKYELISETGGSHDKRFVMEVEVDGQKFQGAGSNKKVAKAYAALAALEKLFPDTPLALDANKKKRAPVPVRGGPKFAAKPHNPGFGMGGPMHNEVPPPPNLRGRGRGGSIRGRGRGRGFGGANHGGYMNAGAGYGSYGYGGNSATAGYSQFYSNGGHSGNASGGGGGGGGGSSGYGSYYQGDNYNSPVPPKHAGKKQPHGGQQKPSYGSGYQSHQGQQQSYNQSPYSNYGPPQGKQKGYNHGQGSYSYSNSYNSPGGGGGSDYNYESKFNYSGSGGRSGGNSYGSGGASYNPGSHGGYGGGSGGGSSYQGKQGGYSQSNYNSPGSGQNYSGPPSSYQSSQGGYGRNADHSMNYQYR	0.5
HXK1_HUMAN (protein, UniProt P19367 1-917, looked up) Hexokinase-1: MIAAQLLAYYFTELKDDQVKKIDKYLYAMRLSDETLIDIMTRFRKEMKNGLSRDFNPTATVKMLPTFVRSIPDGSEKGDFIALDLGGSSFRILRVQVNHEKNQNVHMESEVYDTPENIVHGSGSQLFDHVAECLGDFMEKRKIKDKKLPVGFTFSFPCQQSKIDEAILITWTKRFKASGVEGADVVKLLNKAIKKRGDYDANIVAVVNDTVGTMMTCGYDDQHCEVGLIIGTGTNACYMEELRHIDLVEGDEGRMCINTEWGAFGDDGSLEDIRTEFDREIDRGSLNPGKQLFEKMVSGMYLGELVRLILVKMAKEGLLFEGRITPELLTRGKFNTSDVSAIEKNKEGLHNAKEILTRLGVEPSDDDCVSVQHVCTIVSFRSANLVAATLGAILNRLRDNKGTPRLRTTVGVDGSLYKTHPQYSRRFHKTLRRLVPDSDVRFLLSESGSGKGAAMVTAVAYRLAEQHRQIEETLAHFHLTKDMLLEVKKRMRAEMELGLRKQTHNNAVVKMLPSFVRRTPDGTENGDFLALDLGGTNFRVLLVKIRSGKKRTVEMHNKIYAIPIEIMQGTGEELFDHIVSCISDFLDYMGIKGPRMPLGFTFSFPCQQTSLDAGILITWTKGFKATDCVGHDVVTLLRDAIKRREEFDLDVVAVVNDTVGTMMTCAYEEPTCEVGLIVGTGSNACYMEEMKNVEMVEGDQGQMCINMEWGAFGDNGCLDDIRTHYDRLVDEYSLNAGKQRYEKMISGMYLGEIVRNILIDFTKKGFLFRGQISETLKTRGIFETKFLSQIESDRLALLQVRAILQQLGLNSTCDDSILVKTVCGVVSRRAAQLCGAGMAAVVDKIRENRGLDRLNVTVGVDGTLYKLHPHFSRIMHQTVKELSPKCNVSFLLSEDGSGKGAALITAVGVRLRTEASS	1
SYG_HUMAN (protein, UniProt P41250 37-739, looked up) Glycine--tRNA ligase: SAASCPPISLPAAASRSSMDGAGAEEVLAPLRLAVRQQGDLVRKLKEDKAPQVDVDKAVAELKARKRVLEAKELALQPKDDIVDRAKMEDTLKRRFFYDQAFAIYGGVSGLYDFGPVGCALKNNIIQTWRQHFIQEEQILEIDCTMLTPEPVLKTSGHVDKFADFMVKDVKNGECFRADHLLKAHLQKLMSDKKCSVEKKSEMESVLAQLDNYGQQELADLFVNYNVKSPITGNDLSPPVSFNLMFKTFIGPGGNMPGYLRPETAQGIFLNFKRLLEFNQGKLPFAAAQIGNSFRNEISPRSGLIRVREFTMAEIEHFVDPSEKDHPKFQNVADLHLYLYSAKAQVSGQSARKMRLGDAVEQGVINNTVLGYFIGRIYLYLTKVGISPDKLRFRQHMENEMAHYACDCWDAESKTSYGWIEIVGCADRSCYDLSCHARATKVPLVAEKPLKEPKTVNVVQFEPSKGAIGKAYKKDAKLVMEYLAICDECYITEMEMLLNEKGEFTIETEGKTFQLTKDMINVKRFQKTLYVEEVVPNVIEPSFGLGRIMYTVFEHTFHVREGDEQRTFFSFPAVVAPFKCSVLPLSQNQEFMPFVKELSEALTRHGVSHKVDDSSGSIGRRYARTDEIGVAFGVTIDFDTVNKTPHTATLRDRDSMRQIRAEISELPSIVQDLANGNITWADVEARYPLFEGQETGKKETIEE	1
DC1I2_HUMAN (protein, UniProt Q13409 2-638, looked up) Cytoplasmic dynein 1 …: SDKSELKAELERKKQRLAQIREEKKRKEEERKKKETDQKKEAVAPVQEESDLEKKRREAEALLQSMGLTPESPIVFSEYWVPPPMSPSSKSVSTPSEAGSQDSGDGAVGSRTLHWDTDPSVLQLHSDSDLGRGPIKLGMAKITQVDFPPREIVTYTKETQTPVMAQPKEDEEEDDDVVAPKPPIEPEEEKTLKKDEENDSKAPPHELTEEEKQQILHSEEFLSFFDHSTRIVERALSEQINIFFDYSGRDLEDKEGEIQAGAKLSLNRQFFDERWSKHRVVSCLDWSSQYPELLVASYNNNEDAPHEPDGVALVWNMKYKKTTPEYVFHCQSAVMSATFAKFHPNLVVGGTYSGQIVLWDNRSNKRTPVQRTPLSAAAHTHPVYCVNVVGTQNAHNLISISTDGKICSWSLDMLSHPQDSMELVHKQSKAVAVTSMSFPVGDVNNFVVGSEEGSVYTACRHGSKAGISEMFEGHQGPITGIHCHAAVGAVDFSHLFVTSSFDWTVKLWTTKNNKPLYSFEDNADYVYDVMWSPTHPALFACVDGMGRLDLWNLNNDTEVPTASISVEGNPALNRVRWTHSGREIAVGDSEGQIVIYDVGEQIAVPRNDEWARFGRTLAEINANRADAEEEAATRIPA	1
NU107_HUMAN (protein, UniProt P57740 1-925, looked up) Nuclear pore complex protein …: MDRSGFGEISSPVIREAEVTRTARKQSAQKRVLLQASQDENFGNTTPRNQVIPRTPSSFRQPFTPTSRSLLRQPDISCILGTGGKSPRLTQSSGFFGNLSMVTNLDDSNWAAAFSSQRSGLFTNTEPHSITEDVTISAVMLREDDPGEAASMSMFSDFLQSFLKHSSSTVFDLVEEYENICGSQVNILSKIVSRATPGLQKFSKTASMLWLLQQEMVTWRLLASLYRDRIQSALEEESVFAVTAVNASEKTVVEALFQRDSLVRQSQLVVDWLESIAKDEIGEFSDNIEFYAKSVYWENTLHTLKQRQLTSYVGSVRPLVTELDPDAPIRQKMPLDDLDREDEVRLLKYLFTLIRAGMTEEAQRLCKRCGQAWRAATLEGWKLYHDPNVNGGTELEPVEGNPYRRIWKISCWRMAEDELFNRYERAIYAALSGNLKQLLPVCDTWEDTVWAYFRVMVDSLVEQEIQTSVATLDETEELPREYLGANWTLEKVFEELQATDKKRVLEENQEHYHIVQKFLILGDIDGLMDEFSKWLSKSRNNLPGHLLRFMTHLILFFRTLGLQTKEEVSIEVLKTYIQLLIREKHTNLIAFYTCHLPQDLAVAQYALFLESVTEFEQRHHCLELAKEADLDVATITKTVVENIRKKDNGEFSHHDLAPALDTGTTEEDRLKIDVIDWLVFDPAQRAEALKQGNAIMRKFLASKKHEAAKEVFVKIPQDSIAEIYNQCEEQGMESPLPAEDDNAIREHLCIRAYLEAHETFNEWFKHMNSVPQKPALIPQPTFTEKVAHEHKEKKYEMDFGIWKGHLDALTADVKEKMYNVLLFVDGGWMVDVREDAKEDHERTHQMVLLRKLCLPMLCFLLHTILHSTGQYQECLQLADMVSSERHKLYLVFSKEELRKLLQKLRESSLMLLDQGLDPLGYEIQL	2
